Here are results for 25 substances from paper PMC4072508, “Genome-Wide Prediction and Validation of Peptides That Bind Human Prosurvival Bcl-2 Proteins” (PLoS Computational Biology, 2014).

“And” between values parts separate entries of the source, which are not always exact repeats. Identical values can stand only once.

One assay addresses T1, Bcl-xL (Homo sapiens, UniProt Q07817).
T1 construct: myc-Bcl-xL SPOT array & FP; made in house
Kind of assay: LUMIER full-length protein interaction. In kind it is binding. The following applies: LUMIER results for Bcl-xL; for z-score 1.1: experiment 1, duplicate 1; for z-score 1.2: experiment 1, duplicate 2; for z-score 2.1: experiment 2, duplicate 1; for z-score 2.2: experiment 2, duplicate 2. Here is the method: (§1) The LUMIER assay was carried out as previously described with the following modifications. A stable cell line expressing receptor tagged on the N-terminus with Nanoluc luciferase was created (the prey). […] Each bait construct was transfected into the receptor-luciferase cells in a 96-well format and after 48 hours the cells were lysed and transferred to 384-well plates coated with anti-FLAG. After incubation and washing, luminescence was measured to quantify how much receptor-luciferase was captured by the bait protein. Anti-Flag ELISA signal was used to exclude bait proteins that were not expressed. The experiment was carried out two times, each in duplicate.

In a further assay the target is T2, Mcl-1 (Homo sapiens, UniProt Q07820).
T2 construct: myc-Mcl-1 SPOT array & FP; made in house
T2 sequence (Q07820 with tags, fused parts or gaps): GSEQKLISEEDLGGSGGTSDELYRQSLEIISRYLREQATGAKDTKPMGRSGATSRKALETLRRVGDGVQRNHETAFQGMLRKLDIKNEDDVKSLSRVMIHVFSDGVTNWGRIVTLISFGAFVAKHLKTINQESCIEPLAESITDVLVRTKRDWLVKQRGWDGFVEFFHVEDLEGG
The assay can be described thus: LUMIER full-length protein interaction. In kind it is binding. Conditions: LUMIER results for Mcl-1, Z-score relative to Gaussian fit of the data; for z-score 1.2: experiment 1, duplicate 2; for z-score 2.1: experiment 2, duplicate 1; for z-score 2.2: experiment 2, duplicate 2. Here is the method: as §1

Where [1] appears, read: Z-score relative to Gaussian fit of the data.
Setting [2] is: Z-score of the interaction relative to the Gaussian fit of the data.

T1 sequence (Q07817 with tags, fused parts or gaps): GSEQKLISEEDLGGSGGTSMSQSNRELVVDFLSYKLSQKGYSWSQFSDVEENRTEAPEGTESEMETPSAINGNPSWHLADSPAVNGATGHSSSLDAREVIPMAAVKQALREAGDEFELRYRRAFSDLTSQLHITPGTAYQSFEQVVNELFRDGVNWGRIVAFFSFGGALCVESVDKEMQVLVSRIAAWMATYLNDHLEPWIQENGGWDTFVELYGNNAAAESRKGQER

As for CTSL2 (SQGKHGFTMAMNAFGDMTNEEFRQMM), in the assay with Bcl-xL (setting [1]), the “z-score 1.1” value is listed as -0.437, the “z-score 1.2” value is listed as -1.625 and the “z-score 2.1” value came to 0.4619. Besides, in the assay with Mcl-1, the “z-score 1.2” value is -0.01526, the “z-score 2.1” value was determined as 0.02916 and the “z-score 2.2” value was -0.562.
Regarding CYBB (APEEDFFSIHIRIVGDWTEGLFNACG), in the assay with Bcl-xL (setting [1]), the “z-score 1.1” value amounted to 0.3673, the “z-score 1.2” value is on record as -1.779, the “z-score 2.1” value amounted to 0.009756 and the “z-score 2.2” value is recorded as -0.6661. Besides, in the assay with Mcl-1, the “z-score 1.2” value is reported as 0.6104, the “z-score 2.1” value is reported as -0.8677 and the “z-score 2.2” value is on record as -1.447.
For CYP2A6 (MPYMEAVIHEIQRFGDVIPMSLARRV), in the assay with Bcl-xL (setting [1]), the “z-score 1.1” value was -0.01422, the “z-score 1.2” value is listed as -0.04633, the “z-score 2.1” value is on record as -0.5606 and the “z-score 2.2” value was -0.592. In the assay with Mcl-1, the “z-score 1.2” value is -0.6263, the “z-score 2.1” value is listed as -0.8736 and the “z-score 2.2” value is given as -1.0005.
As to DHX30 (PVESSWIAPELRLQSDDILPLGKDSG), in the assay with Bcl-xL (setting [1]), the “z-score 1.1” value was 5.589, the “z-score 1.2” value is 0.08513, the “z-score 2.1” value is 1.44 and the “z-score 2.2” value is recorded as 1.097. Further, in the assay with Mcl-1, the “z-score 1.2” value is given as 0.1736, the “z-score 2.1” value was 1.579 and the “z-score 2.2” value came to 0.3173.
Take DPF3 (SCMATVIHNPLKALGDQFYKEAIEHC): in the assay with Bcl-xL (setting [1]), the “z-score 1.1” value was found to be 4.341, the “z-score 1.2” value came to 0.09731, the “z-score 2.1” value was 0.3964 and the “z-score 2.2” value is on record as 0.9401. Also, in the assay with Mcl-1, the “z-score 1.2” value came out at 0.1193, the “z-score 2.1” value was -0.01021 and the “z-score 2.2” value is recorded as -0.07055.
DSN1 (RAKASSLSEELKHFADGLETDGTLQK): in the assay with Bcl-xL (setting [1]), the “z-score 1.1” value was -1.115, the “z-score 1.2” value is given as 0.4795, the “z-score 2.1” value was -0.01103 and the “z-score 2.2” value is given as -0.4978. In addition, in the assay with Mcl-1, the “z-score 1.2” value is -0.5012, the “z-score 2.1” value came out at 0.1019 and the “z-score 2.2” value stood at 0.2829.
On to DZIP3 (NGGLLEFHKSLQEIGDKNDHWFDIDP), for which, in the assay with Bcl-xL (setting [1]), the “z-score 1.1” value was determined as 0.7197, the “z-score 1.2” value was 0.5899, the “z-score 2.1” value was 1.027 and the “z-score 2.2” value is recorded as -0.02772. Also, in the assay with Mcl-1, the “z-score 1.2” value is reported as 0.5092, the “z-score 2.1” value is given as 0.307 and the “z-score 2.2” value worked out at 0.2898.
In the case of EXOC4 (MQTLSELAKSFQDMADRCLLVLHLEV), in the assay with Bcl-xL (setting [1]), the “z-score 1.1” value was 0.7648, the “z-score 1.2” value is given as -1.829 and the “z-score 2.2” value is -0.5885. In the assay with Mcl-1, the “z-score 1.2” value is -0.5001, the “z-score 2.1” value is on record as 0.001659 and the “z-score 2.2” value is recorded as -1.314.
Take FADD (APGEEDLCAAFNVICDNVGKDWRRLA): in the assay with Bcl-xL (setting [1]), the “z-score 1.1” value is -1.0584, the “z-score 1.2” value is reported as -0.5034, the “z-score 2.1” value was 0.7016 and the “z-score 2.2” value is 0.6909. In the assay with Mcl-1, the “z-score 1.2” value was 0.7662 and the “z-score 2.1” value is listed as 0.7867.
In the case of FBXL3 (CHGLRELALNYHLLSDELLLALSSEK), in the assay with Bcl-xL (setting [1]), the “z-score 1.1” value was -0.4003, the “z-score 1.2” value is on record as -1.2734, the “z-score 2.1” value worked out at 2.098 and the “z-score 2.2” value came to 0.0146. In addition, in the assay with Mcl-1, the “z-score 1.2” value was -0.6557, the “z-score 2.1” value is given as -0.4574 and the “z-score 2.2” value is given as -0.175.
FOXI1 (PDKRLTLSQIYQYVADNFPFYNKSKA): in the assay with Bcl-xL (setting [1]), the “z-score 1.1” value was 4.354, the “z-score 1.2” value is -0.599, the “z-score 2.1” value was 1.203 and the “z-score 2.2” value is listed as 1.501. In addition, in the assay with Mcl-1, the “z-score 1.2” value is listed as 0.03188 and the “z-score 2.2” value is reported as -0.4966.
In the case of FUT8 (KKLKNLEGNELQRHADEFLLDLGHHE), in the assay with Bcl-xL (setting [1]), the “z-score 1.1” value is on record as -1.728, the “z-score 1.2” value is on record as -2.609, the “z-score 2.1” value is given as 2.234 and the “z-score 2.2” value is on record as -0.644. Further, in the assay with Mcl-1, the “z-score 1.2” value is on record as -0.4768, the “z-score 2.1” value is reported as -0.1664 and the “z-score 2.2” value is recorded as -0.7985.
On to GBP6 (NDDTPWIARTLDNLADELTAILSAPA), for which, in the assay with Bcl-xL (setting [1]), the “z-score 1.1” value was 0.2217, the “z-score 1.2” value was -0.6971, the “z-score 2.1” value is on record as -0.4961 and the “z-score 2.2” value is recorded as -0.5692. For the same substance, in the assay with Mcl-1, the “z-score 1.2” value was 0.7158, the “z-score 2.1” value is recorded as -0.81 and the “z-score 2.2” value was -1.083.
Regarding HEXDC (VLELHPGAQRLHIGCDEVYYLGEGEA), in the assay with Bcl-xL (setting [1]), the “z-score 1.1” value was -0.9348, the “z-score 1.2” value is recorded as -0.7792, the “z-score 2.1” value is -0.04647 and the “z-score 2.2” value was -0.8049. Also, in the assay with Mcl-1, the “z-score 1.2” value is listed as -0.6103, the “z-score 2.1” value is on record as -1.0129 and the “z-score 2.2” value is reported as -1.44.
For IPO5 (SEIMHSFAKCIEVMGDGCLNNEHFEE), in the assay with Bcl-xL (setting [1]), the “z-score 1.1” value was determined as 8.932, the “z-score 1.2” value is given as -0.8907, the “z-score 2.1” value came to 0.7008 and the “z-score 2.2” value turned out to be 0.6709. In the assay with Mcl-1, the “z-score 1.2” value stood at 1.584, the “z-score 2.1” value is given as 1.802 and the “z-score 2.2” value is listed as 1.866.
On to ISOC1 (AGYELLIQKFLSLYGDQIDMHRKFVV), for which, in the assay with Bcl-xL (setting [1]), the “z-score 2.2” value is 0.4271 and 0.3646. Also, in the assay with Mcl-1, the “z-score 2.1” value was 1.04 and 0.6675; the “z-score 2.2” value is 0.5198 and 0.4144.
For the substance MAPT, in the assay with Bcl-xL (setting [1]), the “z-score 1.1” value was determined as 0.3413, the “z-score 1.2” value is recorded as 1.938 and the “z-score 2.1” value came out at 0.8331. Further, in the assay with Mcl-1, the “z-score 1.2” value is listed as 0.1627 and the “z-score 2.2” value came to 0.6441.
Regarding NOL8 (KYDPSKYCHNLKKIGEDFSNTIPISS), in the assay with Bcl-xL (setting [1]), the “z-score 1.1” value amounted to 1.001, the “z-score 1.2” value is -1.268, the “z-score 2.1” value is on record as 4.4 and the “z-score 2.2” value was 3.656. For the same substance, in the assay with Mcl-1, the “z-score 1.2” value is 0.3257, the “z-score 2.1” value is reported as 2.02 and the “z-score 2.2” value stood at 1.79.
Turning to NRN1L (DTIYQGFAECLIRLGDSMGRGGELET), in the assay with Bcl-xL (setting [1]), the “z-score 1.1” value is reported as -0.79, the “z-score 1.2” value is -2.494, the “z-score 2.1” value was 0.3656 and the “z-score 2.2” value came out at 0.03743. Also, in the assay with Mcl-1, the “z-score 1.2” value was determined as 1.162, the “z-score 2.1” value is listed as 0.005652 and the “z-score 2.2” value was determined as 1.343.
For P2RX7 (QCPIFRLGDIFRETGDNFSDVAIQGG), in the assay with Bcl-xL (setting [1]), the “z-score 1.1” value was determined as 0.2486, the “z-score 1.2” value is listed as -0.6775, the “z-score 2.1” value came to 0.2039 and the “z-score 2.2” value is listed as -0.7989. Also, in the assay with Mcl-1, the “z-score 1.2” value is -0.04596, the “z-score 2.1” value was -0.1664 and the “z-score 2.2” value is on record as -0.3437.
Consider PCNXL2 (LLDFFMVSILFSKLGDLLHKLQFVLT), for which, in the assay with Bcl-xL (setting [1]), the “z-score 1.1” value is given as -0.7258, the “z-score 1.2” value is given as 0.8817, the “z-score 2.1” value was determined as 0.72 and the “z-score 2.2” value came out at 1.005. Also, in the assay with Mcl-1, the “z-score 1.2” value is -1.056, the “z-score 2.1” value is reported as 0.4915 and the “z-score 2.2” value was -0.3857.
For the substance PPAT (RLRQLGVAKKFGVLSDNFKGKRIVLV), in the assay with Bcl-xL (setting [1]), the “z-score 1.1” value is listed as -0.3811, the “z-score 1.2” value was 0.4308, the “z-score 2.1” value is recorded as -0.2564 and the “z-score 2.2” value is reported as -0.4829. For the same substance, in the assay with Mcl-1, the “z-score 1.2” value is on record as 0.1831, the “z-score 2.1” value is on record as -0.6136 and the “z-score 2.2” value is listed as -0.9152.
Take PRCP (DDMFEPHSWNLKELSDDCFQQWGVRP): in the assay with Bcl-xL (setting [1]), the “z-score 1.1” value was -0.9043, the “z-score 1.2” value was determined as 0.9292, the “z-score 2.1” value was found to be 0.4444 and the “z-score 2.2” value is reported as 1.668. Besides, in the assay with Mcl-1, the “z-score 1.2” value was found to be 0.7633, the “z-score 2.1” value amounted to 0.7051 and the “z-score 2.2” value was determined as 0.9311.
For PRDX4 (LDFTFVCPTEIIAFGDRLEEFRSINT), in the assay with Bcl-xL (setting [1]), the “z-score 1.1” value is given as -0.3595, the “z-score 1.2” value was -2.173, the “z-score 2.1” value is recorded as -0.3545 and the “z-score 2.2” value is on record as -0.635. For the same substance, in the assay with Mcl-1, the “z-score 1.2” value is reported as -0.5708, the “z-score 2.1” value was -0.006199 and the “z-score 2.2” value is recorded as -0.3116.
PRKD3 (IQENVDISTVYQIFADEVLGSGQFGI): in the assay with Bcl-xL (setting [2]), the “z-score 1.1” value is 6.764, the “z-score 1.2” value is on record as -0.4537, the “z-score 2.1” value came out at 1.665 and the “z-score 2.2” value was 5.133. In the assay with Mcl-1, the “z-score 1.2” value was 0.6899, the “z-score 2.1” value was 3.751 and the “z-score 2.2” value is 3.546.
